Values quoted from earlier work in patent US12251426B2 (priority 2020, dated 2025).

B1: Bovine lactoferrin: water-soluble protein obtainable through bovine milk (protein, UniProt P24627 20-708, looked up)
Lactotransferrin: APRKNVRWCTISQPEWFKCRRWQWRMKKLGAPSITCVRRAFALECIRAIAEKKADAVTLDGGMVFEAGRDPYKLRPVAAEIYGTKESPQTHYYAVAVVKKGSNFQLDQLQGRKSCHTGLGRSAGWIIPMGILRPYLSWTESLEPLQGAVAKFFSASCVPCIDRQAYPNLCQLCKGEGENQCACSSREPYFGYSGAFKCLQDGAGDVAFVKETTVFENLPEKADRDQYELLCLNNSRAPVDAFKECHLAQVPSHAVVARSVDGKEDLIWKLLSKAQEKFGKNKSRSFQLFGSPPGQRDLLFKDSALGFLRIPSKVDSALYLGSRYLTTLKNLRETAEEVKARYTRVVWCAVGPEEQKKCQQWSQQSGQNVTCATASTTDDCIVLVLKGEADALNLDGGYIYTAGKCGLVPVLAENRKSSKHSSLDCVLRPTEGYLAVAVVKKANEGLTWNSLKDKKSCHTAVDRTAGWNIPMGLIVNQTGSCAFDEFFSQSCAPGADPKSRLCALCAGDDQGLDKCVPNSKEKYYGYTGAFRCLAEDVGDVAFVKNDTVWENTNGESTADWAKNLNREDFRLLCLDGTRKPVTEAQSCHLAVAPNHAVVSRSDRAAHVKQVLLHQQALFGKNGKNCPDKFCLFKSETKNLLFNDNTECLAKLGGRPTYEEYLGTEYVTAIANLKKCSTSPLLEACAFLTR
- water solubility: water-soluble
